Data: US6534281

How the values were obtained:
human C-peptide (human) [1] = test: sandwich immunoassay, one-step; 9103 on particles, labeled antibody 9101
human proinsulin (human) [2] = target: human proinsulin (human) (UniProt P01308); test: sandwich immunoassay, one-step, against C-peptide calibration; proinsulin 400 ng/ml; 9103 on particles, labeled antibody PEP-001
human proinsulin (human) [3] = target: human proinsulin (human) (UniProt P01308); test: sandwich immunoassay, two-step, against C-peptide calibration; proinsulin 400 ng/ml; 9103 on particles, labeled antibody 9101
human proinsulin (human) [4] = target: human proinsulin (human) (UniProt P01308); test: sandwich immunoassay, one-step, against C-peptide calibration; proinsulin 200 ng/ml; 9103 on particles, labeled antibody PEP-001
human proinsulin (human) [5] = target: human proinsulin (human) (UniProt P01308); test: sandwich immunoassay, two-step, against C-peptide calibration; proinsulin 200 ng/ml; 9103 on particles, labeled antibody 9101
human C-peptide (human) [6] = test: sandwich immunoassay, one-step; 9103 on particles, labeled antibody PEP-001
human proinsulin (human) [7] = target: human proinsulin (human) (UniProt P01308); test: sandwich immunoassay, one-step, against C-peptide calibration; proinsulin 50 ng/ml; 9103 on particles, labeled antibody 9101
human proinsulin (human) [8] = target: human proinsulin (human) (UniProt P01308); test: sandwich immunoassay, two-step, against C-peptide calibration; proinsulin 50 ng/ml; 9103 on particles, labeled antibody PEP-001
human proinsulin (human) [9] = target: human proinsulin (human) (UniProt P01308); test: sandwich immunoassay, two-step, against C-peptide calibration; proinsulin 50 ng/ml; 9103 on particles, labeled antibody 9101
human proinsulin (human) [10] = target: human proinsulin (human) (UniProt P01308); test: sandwich immunoassay, one-step, against C-peptide calibration; proinsulin 50 ng/ml; 9103 on particles, labeled antibody PEP-001
[11] = target: modified C-peptide (human C-peptide having Arg-Arg bound to its N-terminal and Lys-Arg bound to its C-terminal) (human); test: sandwich immunoassay, one-step, against C-peptide calibration; modified C-peptide 5 ng/ml; 9103 on particles, labeled antibody PEP-001
modified C-peptide (human C-peptide having Arg-Arg bound to its N-terminal and Lys-Arg bound to its C-terminal) (human), sequence (peptide, as listed by the source): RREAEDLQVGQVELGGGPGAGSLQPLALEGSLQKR

human proinsulin (human) [12] = target: human proinsulin (human) (UniProt P01308); test: sandwich immunoassay, one-step, against C-peptide calibration; proinsulin 400 ng/ml; 9103 on particles, labeled antibody 9101
[13] = target: modified C-peptide (human C-peptide having Arg-Arg bound to its N-terminal and Lys-Arg bound to its C-terminal) (human); test: sandwich immunoassay, one-step, against C-peptide calibration; modified C-peptide 5 ng/ml; 9103 on particles, labeled antibody 9101
human C-peptide (human) [14] = test: sandwich immunoassay, two-step; 9103 on particles, labeled antibody PEP-001
human proinsulin (human) [15] = target: human proinsulin (human) (UniProt P01308); test: sandwich immunoassay, two-step, against C-peptide calibration; proinsulin 200 ng/ml; 9103 on particles, labeled antibody PEP-001
[16] = target: modified C-peptide (human C-peptide having Arg-Arg bound to its N-terminal and Lys-Arg bound to its C-terminal) (human); test: sandwich immunoassay, two-step, against C-peptide calibration; modified C-peptide 5 ng/ml; 9103 on particles, labeled antibody PEP-001
human proinsulin (human) [17] = target: human proinsulin (human) (UniProt P01308); test: sandwich immunoassay, two-step, against C-peptide calibration; proinsulin 400 ng/ml; 9103 on particles, labeled antibody PEP-001
human C-peptide (human) [18] = test: sandwich immunoassay, two-step; 9103 on particles, labeled antibody 9101
human proinsulin (human) [19] = target: human proinsulin (human) (UniProt P01308); test: sandwich immunoassay, one-step, against C-peptide calibration; proinsulin 200 ng/ml; 9103 on particles, labeled antibody 9101
[20] = target: modified C-peptide (human C-peptide having Arg-Arg bound to its N-terminal and Lys-Arg bound to its C-terminal) (human); test: sandwich immunoassay, two-step, against C-peptide calibration; modified C-peptide 5 ng/ml; 9103 on particles, labeled antibody 9101
human C-peptide (human) [21] = test: sandwich immunoassay, one-step; PEP-001 on particles, labeled antibody 9103
human C-peptide (human) [22] = test: sandwich immunoassay, two-step; PEP-001 on particles, labeled antibody CPT-3F-11
[23] = target: modified C-peptide (human C-peptide having Arg-Arg bound to its N-terminal and Lys-Arg bound to its C-terminal) (human); test: sandwich immunoassay, two-step, against C-peptide calibration; modified C-peptide 5 ng/ml; PEP-001 on particles, labeled antibody CPT-3F-11
human proinsulin (human) [24] = target: human proinsulin (human) (UniProt P01308); test: sandwich immunoassay, two-step, against C-peptide calibration; proinsulin 400 ng/ml; PEP-001 on particles, labeled antibody 9103
human proinsulin (human) [25] = target: human proinsulin (human) (UniProt P01308); test: sandwich immunoassay, two-step, against C-peptide calibration; proinsulin 50 ng/ml; PEP-001 on particles, labeled antibody 9103
human proinsulin (human) [26] = target: human proinsulin (human) (UniProt P01308); test: sandwich immunoassay, one-step, against C-peptide calibration; proinsulin 200 ng/ml; PEP-001 on particles, labeled antibody CPT-3-F11
[27] = target: modified C-peptide (human C-peptide having Arg-Arg bound to its N-terminal and Lys-Arg bound to its C-terminal) (human); test: sandwich immunoassay, one-step, against C-peptide calibration; modified C-peptide 5 ng/ml; PEP-001 on particles, labeled antibody 9103
human proinsulin (human) [28] = target: human proinsulin (human) (UniProt P01308); test: sandwich immunoassay, one-step, against C-peptide calibration; proinsulin 400 ng/ml; PEP-001 on particles, labeled antibody 9103
human proinsulin (human) [29] = target: human proinsulin (human) (UniProt P01308); test: sandwich immunoassay, two-step, against C-peptide calibration; proinsulin 200 ng/ml; PEP-001 on particles, labeled antibody 9103
[30] = target: modified C-peptide (human C-peptide having Arg-Arg bound to its N-terminal and Lys-Arg bound to its C-terminal) (human); test: sandwich immunoassay, two-step, against C-peptide calibration; modified C-peptide 5 ng/ml; PEP-001 on particles, labeled antibody 9103
[31] = target: modified C-peptide (human C-peptide having Arg-Arg bound to its N-terminal and Lys-Arg bound to its C-terminal) (human); test: sandwich immunoassay, one-step, against C-peptide calibration; modified C-peptide 5 ng/ml; PEP-001 on particles, labeled antibody CPT-3F-11
human C-peptide (human) [32] = test: sandwich immunoassay, one-step; PEP-001 on particles, labeled antibody CPT-3F-11
human C-peptide (human) [33] = test: sandwich immunoassay, two-step; PEP-001 on particles, labeled antibody 9103
human proinsulin (human) [34] = target: human proinsulin (human) (UniProt P01308); test: sandwich immunoassay, two-step, against C-peptide calibration; proinsulin 50 ng/ml; PEP-001 on particles, labeled antibody CPT-3-F11
human proinsulin (human) [35] = target: human proinsulin (human) (UniProt P01308); test: sandwich immunoassay, one-step, against C-peptide calibration; proinsulin 50 ng/ml; PEP-001 on particles, labeled antibody CPT-3-F11
human proinsulin (human) [36] = target: human proinsulin (human) (UniProt P01308); test: sandwich immunoassay, one-step, against C-peptide calibration; proinsulin 200 ng/ml; PEP-001 on particles, labeled antibody 9103
human proinsulin (human) [37] = target: human proinsulin (human) (UniProt P01308); test: sandwich immunoassay, one-step, against C-peptide calibration; proinsulin 400 ng/ml; PEP-001 on particles, labeled antibody CPT-3-F11
human proinsulin (human) [38] = target: human proinsulin (human) (UniProt P01308); test: sandwich immunoassay, one-step, against C-peptide calibration; proinsulin 50 ng/ml; PEP-001 on particles, labeled antibody 9103
human proinsulin (human) [39] = target: human proinsulin (human) (UniProt P01308); test: sandwich immunoassay, two-step, against C-peptide calibration; proinsulin 400 ng/ml; PEP-001 on particles, labeled antibody CPT-3-F11
human proinsulin (human) [40] = target: human proinsulin (human) (UniProt P01308); test: sandwich immunoassay, two-step, against C-peptide calibration; proinsulin 200 ng/ml; PEP-001 on particles, labeled antibody CPT-3-F11

human C-peptide (human), sequence (peptide, as listed by the source): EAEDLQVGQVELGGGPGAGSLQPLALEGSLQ
UniProt P01308, sequence (P01308 25-110): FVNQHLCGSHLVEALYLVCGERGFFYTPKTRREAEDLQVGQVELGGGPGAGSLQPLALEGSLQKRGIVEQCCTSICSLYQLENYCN

anti-human C-peptide monoclonal antibody 9103 (Medix Biochemica)
2S/N value (human C-peptide (human) [1]): 0.117 ng/mL
Cross-reactivity (%) to Human Proinsulin (human proinsulin (human) [2]): > 15%
Cross-reactivity (%) to Human Proinsulin (human proinsulin (human) [3]): 6.8%
Cross-reactivity (%) to Human Proinsulin (human proinsulin (human) [4]): > 30%
Cross-reactivity (%) to Human Proinsulin (human proinsulin (human) [5]): 4.4%
2S/N value (human C-peptide (human) [6]): 0.009 ng/mL
Cross-reactivity (%) to Human Proinsulin (human proinsulin (human) [7]): 3.2%
Cross-reactivity (%) to Human Proinsulin (human proinsulin (human) [8]): 65.2%
Cross-reactivity (%) to Human Proinsulin (human proinsulin (human) [9]): 2.3%
Cross-reactivity (%) to Human Proinsulin (human proinsulin (human) [10]): 58%
Cross-reactivity (%) to Modified C-peptide [11]: 58.2%
Cross-reactivity (%) to Human Proinsulin (human proinsulin (human) [12]): 6.9%
Cross-reactivity (%) to Modified C-peptide [13]: < 0.5%
2S/N value (human C-peptide (human) [14]): 0.018 ng/mL
Cross-reactivity (%) to Human Proinsulin (human proinsulin (human) [15]): > 30%
Cross-reactivity (%) to Modified C-peptide [16]: 38.6%
Cross-reactivity (%) to Human Proinsulin (human proinsulin (human) [17]): > 15%
2S/N value (human C-peptide (human) [18]): 0.167 ng/mL
Cross-reactivity (%) to Human Proinsulin (human proinsulin (human) [19]): 5.8%
Cross-reactivity (%) to Modified C-peptide [20]: < 0.5%

anti-human C-peptide monoclonal antibody PEP-001 (Dako)
2S/N value (human C-peptide (human) [21]): 0.781 ng/mL
2S/N value (human C-peptide (human) [22]): 0.271 ng/mL
Cross-reactivity (%) to Modified C-peptide [23]: 80%
Cross-reactivity (%) to Human Proinsulin (human proinsulin (human) [24]): > 15%
Cross-reactivity (%) to Human Proinsulin (human proinsulin (human) [25]): > 120%
Cross-reactivity (%) to Human Proinsulin (human proinsulin (human) [26]): > 30%
Cross-reactivity (%) to Modified C-peptide [27]: 35%
Cross-reactivity (%) to Human Proinsulin (human proinsulin (human) [28]): > 15%
Cross-reactivity (%) to Human Proinsulin (human proinsulin (human) [29]): > 30%
Cross-reactivity (%) to Modified C-peptide [30]: 38.3%
Cross-reactivity (%) to Modified C-peptide [31]: 98.5%
2S/N value (human C-peptide (human) [32]): 0.191 ng/mL
2S/N value (human C-peptide (human) [33]): 0.591 ng/mL
Cross-reactivity (%) to Human Proinsulin (human proinsulin (human) [34]): > 120%
Cross-reactivity (%) to Human Proinsulin (human proinsulin (human) [35]): > 120%
Cross-reactivity (%) to Human Proinsulin (human proinsulin (human) [36]): > 30%
Cross-reactivity (%) to Human Proinsulin (human proinsulin (human) [37]): > 15%
Cross-reactivity (%) to Human Proinsulin (human proinsulin (human) [38]): > 120%
Cross-reactivity (%) to Human Proinsulin (human proinsulin (human) [39]): > 15%
Cross-reactivity (%) to Human Proinsulin (human proinsulin (human) [40]): > 30%
